Assay [1] addresses T1, FcγRIIIAF158 extracellular domain, His tag (human, UniProt P08637 17-208).
T1 construct: extracellular domain
Briefly: ELISA, FcγR-His coated, preformed immune complex of the mAb. The procedure: (§1) The extracellular domains of FcγRs were fused to C-terminal His tags as described in previous sections. Recombinant proteins were expressed in 293-F cells by transient transfection and purified using Ni-Sepharose column followed by gel filtration column as described. 2-5 μg/mL of FcγRs were coated on Nunc MaxiSorp ELISA plates (Cat. No. 442404, Nunc, Thermo Fisher) except FcγRIIB and FcγRIIIB, Ni-chelate plates were used (Cat. No. 15242, Pierce, Thermo Fisher). After washing and blocking of the wells, a preformed immune-complex was added to each well and incubated at room temperature for 1-2 hours. […] After washing the plate four times, binding signals were detected by chemiluminescence using Immobilon Chemiluminescence Substrate A/B (Cat. No. WBKLS0500, Millipore).

Assay [2] addresses T2, FcγRIIAR131 extracellular domain, His tag (human, UniProt P12318 34-217).
T2 construct: extracellular domain
T2 sequence (looked up): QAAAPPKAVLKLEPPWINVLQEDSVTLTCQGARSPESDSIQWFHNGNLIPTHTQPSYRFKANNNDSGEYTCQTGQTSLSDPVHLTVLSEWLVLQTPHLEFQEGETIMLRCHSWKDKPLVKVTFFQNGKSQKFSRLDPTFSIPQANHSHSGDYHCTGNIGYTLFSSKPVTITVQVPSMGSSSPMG
Described as above. The procedure:
as §1

Assay [3] deals with T3, FcγRIIAH131 extracellular domain, His tag (human, UniProt P12318 34-217).
T3 construct: extracellular domain
T3 sequence (looked up): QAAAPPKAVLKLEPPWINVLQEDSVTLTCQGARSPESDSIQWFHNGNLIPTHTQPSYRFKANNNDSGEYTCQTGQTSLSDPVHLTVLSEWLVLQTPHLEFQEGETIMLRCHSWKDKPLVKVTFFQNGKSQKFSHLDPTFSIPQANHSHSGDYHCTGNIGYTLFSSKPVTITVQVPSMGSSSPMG
The assay is described as above. The protocol:
as §1

In assay [4] the target is T4, FcγRIIIAV158 extracellular domain, His tag (human, UniProt P08637 17-208).
T4 construct: extracellular domain; also called FcγRIIIAV58
T4 sequence (P08637 17-208 F176V limits assumed): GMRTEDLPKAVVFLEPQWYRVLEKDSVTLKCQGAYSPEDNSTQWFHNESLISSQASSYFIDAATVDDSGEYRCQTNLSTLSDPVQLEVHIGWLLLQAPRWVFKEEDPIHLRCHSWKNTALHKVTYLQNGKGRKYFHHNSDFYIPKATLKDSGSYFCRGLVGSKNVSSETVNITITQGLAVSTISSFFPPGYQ
The assay is described as above. The protocol: as §1

Assay [5] addresses T5, FcγRI extracellular domain, His tag (human, UniProt P12314 16-292).
T5 construct: extracellular domain
Described as above. The procedure: as §1

Assay [6] addresses T1, FcγRIIIAF158 extracellular domain, His …. In words: ELISA, FcγR-His coated, preformed immune complex; normalized to hu333-4A2-IgG1wt. The procedure: as §1
(An ELISA detects its analyte on a solid surface through an enzyme-linked reagent.)

Assay [7] deals with T2, FcγRIIAR131 extracellular domain, His …. The assay is described as above. The protocol:
as §1

Assay [8] deals with T3, FcγRIIAH131 extracellular domain, His …. The description is as above. The protocol: as §1
The target in assay [9] is T4, FcγRIIIAV158 extracellular domain, His …. The assay is described as above. The procedure:
as §1

The target in assay [10] is T5, FcγRI extracellular domain, His tag. The description is as above. The procedure: as §1
Assay [11] has as its target T6, human PD-L1, full length, expressed on cells (human, UniProt Q9NZQ7 19-290). Briefly: cell-based or functional assay.
The target in assay [12] is T6, human PD-L1, full length, expressed on …. In words: FACS on HEK293/PD-L1 cells. The procedure: FACS binding analysis was performed as described in previous sections.

Experimental findings from US20180215825A1 (BEIGENE, published 2018) are described below.

A word on the EC50: it is the concentration giving half of the maximal effect.

T6 sequence (Q9NZQ7 19-290 limits assumed): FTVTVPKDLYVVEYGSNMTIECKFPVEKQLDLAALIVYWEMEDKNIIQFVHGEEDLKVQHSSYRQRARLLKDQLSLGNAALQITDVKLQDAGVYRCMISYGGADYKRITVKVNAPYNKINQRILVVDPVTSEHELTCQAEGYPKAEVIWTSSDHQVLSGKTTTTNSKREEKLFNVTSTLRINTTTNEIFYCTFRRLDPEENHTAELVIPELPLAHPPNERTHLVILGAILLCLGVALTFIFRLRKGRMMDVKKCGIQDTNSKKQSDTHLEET
T5 sequence (P12314 16-292): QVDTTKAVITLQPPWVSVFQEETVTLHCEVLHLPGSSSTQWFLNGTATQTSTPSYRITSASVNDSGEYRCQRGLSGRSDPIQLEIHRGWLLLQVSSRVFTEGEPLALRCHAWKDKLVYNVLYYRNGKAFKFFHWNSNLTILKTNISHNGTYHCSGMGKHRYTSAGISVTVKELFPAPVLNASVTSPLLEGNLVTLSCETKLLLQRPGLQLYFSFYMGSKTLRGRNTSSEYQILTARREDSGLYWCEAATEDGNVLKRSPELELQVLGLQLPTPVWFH
T1 sequence (P08637 17-208): as the sequence (P08637 17-208 F176V limits assumed) above, with V160F counted along it

B1: hu333-4A2-IgG1wt (antibody)
heavy: not shown
VL: DIQMTQSPSSLSASVGDRVTITCKASQDVGIVVAWYQQKPGKAPKLLIYWASIRHTGVPSRFSGSGSGTEFTLTISSLQPDDFATYYCQQYSNYPLYTFGQGTKVEIK
notes: light chain constant region (kappa) not tied to an entry for this form
Consider B1, for which the Chemiluminescence in [1] is 36400; in assay [2], 50200; in assay [3], 54600; in assay [4], 57800; in assay [5] it was 42700. Also, the Relative binding in assay [6], in assay [7], in [8], in [9] and in [10] was 100% in each case.

B2: hu333-4B2-IgG1mc (antibody)
heavy: EVQLVESGGGLVQPGGSLRLSCAVSGFSLTSYGVHWVRQAPGKGLEWVAVIWAGGSTNYADSVKGRFTISKDTSKNTVYLQMNSLRAEDTAVYYCAKPYGTSAMDYWGQGTLVTVSSASTKGPSVFPLAPSSKSTSGGTAALGCLVKDYFPEPVTVSWNSGALTSGVHTFPAVLQSSGLYSLSSVVTVPSSSLGTQTYICNVNHKPSNTKVDKKVEPKSCDKTHTCPPCPAPPAAAPSVFLFPPKPKDTLMISRTPEVTCVVVDVSHEDPEVKFNWYVDGVEVHNAKTKPREEQYNSTYRVVSVLTVLHQDWLNGKEYKCKVSNKALAAPIEKTISKAKGQPREPQVYTLPPSRDELTKNQVSLTCLVKGFYPSDIAVEWESNGQPENNYKTTPPVLDSDGSFFLYSKLTVDKSRWQQGNVFSCSVMHEALHNHYTQKSLSLSPGK
light: DIQMTQSPSSLSASVGDRVTITCKASQDVGIVVAWYQQKPGKAPKLLIYWASIRHTGVPSRFSGSGSGTEFTLTISSLQPDDFATYYCQQYSNYPLYTFGQGTKVEIKRTVAAPSVFIFPPSDEQLKSGTASVVCLLNNFYPREAKVQWKVDNALQSGNSQESVTEQDSKDSTYSLSSTLTLSKADYEKHKVYACEVTHQGLSSPVTKSFNRGEC
B2: in assay [11], the “IL-2 release in HuT78/P3Z: IC50” value is 0.039 µg/mL, the “IL-2 release in HuT78/P3Z: Max inhibition” value is 99%, the “IL-2 release in HuT78/PD-1: EC50” value stood at 0.084 µg/mL and the “IL-2 release in HuT78/PD-1: Top line” value was found to be 300 pg/mL. Further, in assay [12], the EC50 amounted to 0.092 µg/mL and the “Top MFI” value is 1390 MFI.

B3: hu333-4B2-IgG1mf (antibody)
heavy: EVQLVESGGGLVQPGGSLRLSCAVSGFSLTSYGVHWVRQAPGKGLEWVAVIWAGGSTNYADSVKGRFTISKDTSKNTVYLQMNSLRAEDTAVYYCAKPYGTSAMDYWGQGTLVTVSSASTKGPSVFPLAPSSKSTSGGTAALGCLVKDYFPEPVTVSWNSGALTSGVHTFPAVLQSSGLYSLSSVVTVPSSSLGTQTYICNVNHKPSNTKVDKKVEPKSCDKTHTCPPCPAPPAAGPSVFLFPPKPKDTLMISRTPEVTCVVVDVSHEDPEVKFNWYVDGVEVHNAKTKPREEQYNSTYRVVSVLTVLHQDWLNGKEYKCKVSNKALAAPIEKTISKAKGQPREPQVYTLPPSRDELTKNQVSLTCLVKGFYPSDIAVEWESNGQPENNYKTTPPVLDSDGSFFLYSKLTVDKSRWQQGNVFSCSVMHEALHNHYTQKSLSLSPGK
light: DIQMTQSPSSLSASVGDRVTITCKASQDVGIVVAWYQQKPGKAPKLLIYWASIRHTGVPSRFSGSGSGTEFTLTISSLQPDDFATYYCQQYSNYPLYTFGQGTKVEIKRTVAAPSVFIFPPSDEQLKSGTASVVCLLNNFYPREAKVQWKVDNALQSGNSQESVTEQDSKDSTYSLSSTLTLSKADYEKHKVYACEVTHQGLSSPVTKSFNRGEC
For the molecule B3, in assay [11], the “IL-2 release in HuT78/P3Z: IC50” value worked out at 0.037 µg/mL, the “IL-2 release in HuT78/P3Z: Max inhibition” value was 99%, the “IL-2 release in HuT78/PD-1: EC50” value came out at 0.075 µg/mL and the “IL-2 release in HuT78/PD-1: Top line” value is 287 pg/mL. For the same molecule, in [12], the EC50 turned out to be 0.102 µg/mL and the “Top MFI” value turned out to be 1340 MFI.

B4: hu333-4A2-IgG1mc (antibody)
heavy: EVQLVESGGGLVQPGGSLRLSCAVSGFSLTSYGVHWVRQAPGKGLEWVAVIWAGGSTNYVDSVKGRFTISKDNAKNTVYLQMNSLRAEDTAVYYCAKPYGTSAMDYWGQGTLVTVSSASTKGPSVFPLAPSSKSTSGGTAALGCLVKDYFPEPVTVSWNSGALTSGVHTFPAVLQSSGLYSLSSVVTVPSSSLGTQTYICNVNHKPSNTKVDKKVEPKSCDKTHTCPPCPAPPAAAPSVFLFPPKPKDTLMISRTPEVTCVVVDVSHEDPEVKFNWYVDGVEVHNAKTKPREEQYNSTYRVVSVLTVLHQDWLNGKEYKCKVSNKALAAPIEKTISKAKGQPREPQVYTLPPSRDELTKNQVSLTCLVKGFYPSDIAVEWESNGQPENNYKTTPPVLDSDGSFFLYSKLTVDKSRWQQGNVFSCSVMHEALHNHYTQKSLSLSPGK
light: DIQMTQSPSSLSASVGDRVTITCKASQDVGIVVAWYQQKPGKAPKLLIYWASIRHTGVPSRFSGSGSGTEFTLTISSLQPDDFATYYCQQYSNYPLYTFGQGTKVEIKRTVAAPSVFIFPPSDEQLKSGTASVVCLLNNFYPREAKVQWKVDNALQSGNSQESVTEQDSKDSTYSLSSTLTLSKADYEKHKVYACEVTHQGLSSPVTKSFNRGEC
Take B4: in assay [11], the “IL-2 release in HuT78/P3Z: IC50” value came to 0.045 µg/mL, the “IL-2 release in HuT78/P3Z: Max inhibition” value amounted to 99%, the “IL-2 release in HuT78/PD-1: EC50” value was found to be 0.087 µg/mL and the “IL-2 release in HuT78/PD-1: Top line” value was determined as 299 pg/mL. Besides, in [12], it took 0.098 µg/mL to reach a half-maximal effect (EC50) and the “Top MFI” value is 1360 MFI.
